Source: patent US20120329716A1 (UNIVERSITY OF MANITOBA, published 2012)

T1: Purified human recombinant renin (human, UniProt P00797 67-406)
T1 sequence (looked up): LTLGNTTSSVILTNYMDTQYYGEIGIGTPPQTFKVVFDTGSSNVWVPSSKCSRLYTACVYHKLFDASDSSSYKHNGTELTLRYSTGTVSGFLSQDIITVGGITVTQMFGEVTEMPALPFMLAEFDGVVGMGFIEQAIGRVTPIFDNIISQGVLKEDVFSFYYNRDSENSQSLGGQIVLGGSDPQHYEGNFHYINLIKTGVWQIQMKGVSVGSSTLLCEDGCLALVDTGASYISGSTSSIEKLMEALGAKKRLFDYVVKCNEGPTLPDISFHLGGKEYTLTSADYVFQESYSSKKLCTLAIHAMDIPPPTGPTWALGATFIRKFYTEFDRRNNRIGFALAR

T2: Renin substrate 1 (Arg-Glu(EDANS)-Ile-His-Pro-Phe-His-Leu-Val-Ile-His-Thr-Lys(dabcyl)-Arg)
T2 chain: REIHPFHLVIHTKR


molecular target: T1, Purified human recombinant renin; assay: cell-based or functional assay

Binder | RENIN INHIBITION %
SNILEAA [SEQ ID NO. 20] | 24%
RSPD [SEQ ID NO. 17] | 57.5%
AHPVAIN [SEQ ID NO. 22] | 43.5%
YKKSVSSESDPF [SEQ ID NO. 26] | 32.4%
YPRE [SEQ ID NO. 19] | 22.2%
ADMFPF [SEQ ID NO. 23] | 76.2%
WLP [SEQ ID NO. 13] | 4.85%
NFLAGPSD [SEQ ID NO. 25] | 6.73%
YAGVSLI [SEQ ID NO. 21] | 36%
WPHT [SEQ ID NO. 18] | 9.3%
TNPFPF [SEQ ID NO. 24] | 28%
RAAP [SEQ ID NO. 14] | 15.4%
WMP [SEQ ID NO. 15] | 43.4%
HPGAG [SEQ ID NO. 16] | 21.2%

Molecular target: T2, Renin substrate 1 …
Assay: not given

Binder | Michaelis-Menten constant (Km) in the absence of peptide fractions | Michaelis-Menten constant (Km) in the presence of peptide fraction T4 | Michaelis-Menten constant (Km) in the presence of peptide fraction T5
Purified human recombinant renin (protein) LTLGNTTSSVILTNYMDTQYYGEIGIGTPPQTFKVVFDTGSSNVWVPSSKCSRLYTACVYHKLFDASDSSSYKHNGTELTLRYSTGTVSGFLSQDIITVGGITVTQMFGEVTEMPALPFMLAEFDGVVGMGFIEQAIGRVTPIFDNIISQGVLKEDVFSFYYNRDSENSQSLGGQIVLGGSDPQHYEGNFHYINLIKTGVWQIQMKGVSVGSSTLLCEDGCLALVDTGASYISGSTSSIEKLMEALGAKKRLFDYVVKCNEGPTLPDISFHLGGKEYTLTSADYVFQESYSSKKLCTLAIHAMDIPPPTGPTWALGATFIRKFYTEFDRRNNRIGFALAR | 3.8 µM | increased to 6.3 and 6.1 µM, respectively | increased to 6.3 and 6.1 µM, respectively
